Values belong to the binder of their own block, whether it stands above or below them.
What was measured:
Assay in all cases: holdup assay
Set-up in all cases: key: below the threshold = too weak to quantify, mostly under pKd 3.1 to 4
[1] = molecular target: AHNAK1, Q09666
[2] = molecular target: T1, APBA2_2, Q99767
T1 sequence (Q99767 654-744, limits assumed, looked up): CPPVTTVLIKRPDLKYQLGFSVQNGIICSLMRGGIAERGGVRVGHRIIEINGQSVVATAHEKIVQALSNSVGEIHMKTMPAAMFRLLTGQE

[3] = molecular target: T2, ARHGAP21, Q5T5U3
T2 sequence (Q5T5U3 45-169, limits assumed, looked up): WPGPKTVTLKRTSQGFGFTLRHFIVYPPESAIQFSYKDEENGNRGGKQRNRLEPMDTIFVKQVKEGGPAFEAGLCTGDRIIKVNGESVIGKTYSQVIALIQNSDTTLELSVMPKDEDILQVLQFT

[4] = molecular target: T3, ARHGEF11, O15085
T3 sequence (O15085 42-136, limits assumed, looked up): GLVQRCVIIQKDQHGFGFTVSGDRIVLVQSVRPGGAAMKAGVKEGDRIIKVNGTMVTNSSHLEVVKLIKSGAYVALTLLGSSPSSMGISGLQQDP

[5] = molecular target: ARHGEF12, Q9NZN5-2
[6] = molecular target: T4, DFNB31_1, Q9P202
T4 sequence (Q9P202 135-233, limits assumed, looked up): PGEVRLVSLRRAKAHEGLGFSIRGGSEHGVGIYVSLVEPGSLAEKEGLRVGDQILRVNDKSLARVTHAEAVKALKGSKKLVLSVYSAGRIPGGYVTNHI

[7] = molecular target: T5, DFNB31_2, Q9P202
T5 sequence (Q9P202 274-371, limits assumed, looked up): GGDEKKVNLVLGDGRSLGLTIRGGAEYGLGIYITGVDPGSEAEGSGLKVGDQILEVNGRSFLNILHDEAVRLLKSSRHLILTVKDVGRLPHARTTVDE

[8] = molecular target: T6, DFNB31_3, Q9P202
T6 sequence (Q9P202 811-907, limits assumed, looked up): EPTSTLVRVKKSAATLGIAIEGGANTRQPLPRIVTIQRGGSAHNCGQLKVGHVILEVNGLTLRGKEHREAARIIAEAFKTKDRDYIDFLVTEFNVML

[9] = molecular target: DLG1_2, Q12959
[10] = molecular target: T7, DLG3_2, Q92796
T7 sequence (Q92796 221-321, limits assumed, looked up): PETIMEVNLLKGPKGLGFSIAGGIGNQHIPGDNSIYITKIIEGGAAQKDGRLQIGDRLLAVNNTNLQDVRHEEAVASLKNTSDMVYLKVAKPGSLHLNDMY

[11] = molecular target: GIPC2, Q8TF65
[12] = molecular target: GORASP1, Q9BQQ3
[13] = molecular target: GRIP2_3, Q9C0E4
[14] = molecular target: GRIP2_6, Q9C0E4
[15] = molecular target: GRIP2_7, Q9C0E4
[16] = molecular target: T8, HTRA3, P83110
T8 sequence (P83110 354-453, limits assumed, looked up): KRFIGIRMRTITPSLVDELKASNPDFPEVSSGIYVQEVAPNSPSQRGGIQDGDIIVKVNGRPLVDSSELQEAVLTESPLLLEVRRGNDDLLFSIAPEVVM

[17] = molecular target: T9, LRRC7, Q96NW7
T9 sequence (Q96NW7 1440-1537, limits assumed, looked up): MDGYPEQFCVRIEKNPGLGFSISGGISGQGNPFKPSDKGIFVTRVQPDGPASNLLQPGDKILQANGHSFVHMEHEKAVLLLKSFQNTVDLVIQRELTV

[18] = molecular target: MAGI2_2, Q86UL8
[19] = molecular target: MAGI2_5, Q86UL8
[20] = molecular target: T10, PCLO, Q9Y6V0
T10 sequence (Q9Y6V0 4491-4600, limits assumed, looked up): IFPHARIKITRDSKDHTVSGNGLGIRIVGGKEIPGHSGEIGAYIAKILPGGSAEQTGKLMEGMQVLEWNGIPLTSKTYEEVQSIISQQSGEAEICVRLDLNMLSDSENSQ

[21] = molecular target: T11, SYNJ2BP, P57105
T11 sequence (P57105 8-110, limits assumed, looked up): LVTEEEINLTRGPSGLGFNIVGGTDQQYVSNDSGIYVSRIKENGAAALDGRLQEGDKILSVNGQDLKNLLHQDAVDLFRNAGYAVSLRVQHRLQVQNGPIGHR

[22] = molecular target: T12, TJP3_3, O95049
T12 sequence (O95049 375-456, limits assumed, looked up): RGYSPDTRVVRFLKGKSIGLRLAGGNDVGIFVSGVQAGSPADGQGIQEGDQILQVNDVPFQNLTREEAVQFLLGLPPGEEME

[23] = molecular target: T13, TX1BP3, O14907
T13 sequence (O14907 10-122, limits assumed, looked up): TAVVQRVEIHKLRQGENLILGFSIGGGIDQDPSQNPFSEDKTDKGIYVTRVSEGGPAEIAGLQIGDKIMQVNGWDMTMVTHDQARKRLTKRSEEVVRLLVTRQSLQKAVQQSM

[24] = plain residues with an end cap or a label only (N-terminal biotin on a linker: ahx)
[25] = plain residues with an end cap or a label only (N-terminal biotin on a linker: ttds)
[26] = plain residues with an end cap or a label only (N-terminal biotin on a linker: ado-ado)

Chain of ARHGEF12, Q9NZN5-2 (Q9NZN5 other isoform, or with tags, fused parts or gaps): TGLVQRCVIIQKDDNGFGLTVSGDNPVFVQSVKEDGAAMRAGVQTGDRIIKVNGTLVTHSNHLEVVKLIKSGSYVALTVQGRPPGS
Chain of GIPC2, Q8TF65 (Q8TF65 112-203): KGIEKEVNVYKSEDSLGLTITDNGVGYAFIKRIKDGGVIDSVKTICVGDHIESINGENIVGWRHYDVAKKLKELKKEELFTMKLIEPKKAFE
Chain of MAGI2_5, Q86UL8 (Q86UL8 915-1017): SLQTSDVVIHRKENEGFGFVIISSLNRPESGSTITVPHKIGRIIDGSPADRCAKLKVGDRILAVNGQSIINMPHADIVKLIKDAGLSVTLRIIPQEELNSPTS
Chain of GRIP2_7, Q9C0E4 (Q9C0E4 934-1023): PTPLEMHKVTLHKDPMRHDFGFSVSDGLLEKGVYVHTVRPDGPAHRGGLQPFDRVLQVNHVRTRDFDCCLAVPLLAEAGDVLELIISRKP
Chain of GRIP2_3, Q9C0E4 (Q9C0E4 238-339): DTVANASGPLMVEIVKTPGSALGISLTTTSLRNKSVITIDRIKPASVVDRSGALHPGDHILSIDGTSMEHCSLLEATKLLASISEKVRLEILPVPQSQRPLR
Chain of GORASP1, Q9BQQ3 (Q9BQQ3 1-208): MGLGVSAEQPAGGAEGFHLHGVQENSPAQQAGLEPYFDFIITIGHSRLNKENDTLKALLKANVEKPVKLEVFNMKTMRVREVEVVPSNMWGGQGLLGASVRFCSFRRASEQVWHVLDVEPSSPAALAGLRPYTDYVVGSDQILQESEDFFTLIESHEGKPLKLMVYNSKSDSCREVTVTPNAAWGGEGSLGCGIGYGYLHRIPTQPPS
Chain of GRIP2_6, Q9C0E4 (Q9C0E4 648-740): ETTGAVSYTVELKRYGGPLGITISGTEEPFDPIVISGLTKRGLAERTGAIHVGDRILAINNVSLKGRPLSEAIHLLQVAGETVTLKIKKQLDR
Chain of MAGI2_2, Q86UL8 (Q86UL8 410-522): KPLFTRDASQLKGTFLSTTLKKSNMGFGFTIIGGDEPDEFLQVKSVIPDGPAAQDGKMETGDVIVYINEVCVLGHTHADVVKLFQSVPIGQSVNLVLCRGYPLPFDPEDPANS
Chain of DLG1_2, Q12959 (Q12959 314-412): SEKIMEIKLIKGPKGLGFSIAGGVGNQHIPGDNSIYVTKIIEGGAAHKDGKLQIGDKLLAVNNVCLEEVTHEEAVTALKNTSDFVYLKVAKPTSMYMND
Chain of AHNAK1, Q09666 (Q09666 4-100): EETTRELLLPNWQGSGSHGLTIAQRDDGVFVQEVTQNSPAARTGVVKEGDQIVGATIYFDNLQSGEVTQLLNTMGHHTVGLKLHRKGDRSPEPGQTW

Binder: VNENQKEYFF [CNTNAP4, Q9C0A0]
pKd [1, 24]: below the threshold
pKd [2, 24]: below the threshold
pKd [3, 24]: 3.91
pKd [4, 24]: below the threshold
pKd [5, 24]: below the threshold
pKd [6, 24]: below the threshold
pKd [7, 24]: below the threshold
pKd [8, 24]: below the threshold
pKd [9, 24]: below the threshold
pKd [10, 24]: below the threshold
pKd [11, 24]: below the threshold
pKd [12, 24]: below the threshold
pKd [13, 24]: below the threshold
pKd [14, 24]: 5.04
pKd [15, 24]: 5.77
pKd [16, 24]: below the threshold
pKd [17, 24]: below the threshold
pKd [18, 24]: below the threshold
pKd [19, 24]: 3.54
pKd [20, 24]: below the threshold
pKd [21, 24]: below the threshold
pKd [22, 24]: below the threshold
pKd [23, 24]: below the threshold

Binder: SQDPKKPSRV [CBY2, Q8NA61]
pKd [1, 26]: below the threshold
pKd [2, 26]: below the threshold
pKd [3, 26]: 4.04
pKd [4, 26]: below the threshold
pKd [5, 26]: below the threshold
pKd [6, 26]: below the threshold
pKd [7, 26]: below the threshold
pKd [8, 26]: below the threshold
pKd [9, 26]: below the threshold
pKd [10, 26]: below the threshold
pKd [11, 26]: below the threshold
pKd [12, 26]: below the threshold
pKd [13, 26]: below the threshold
pKd [14, 26]: below the threshold
pKd [15, 26]: below the threshold
pKd [16, 26]: below the threshold
pKd [17, 26]: below the threshold
pKd [18, 26]: 4.38
pKd [19, 26]: below the threshold
pKd [20, 26]: below the threshold
pKd [21, 26]: 3.66
pKd [22, 26]: below the threshold
pKd [23, 26]: below the threshold

Further lines, results first:

pKd [1, 25]: below the threshold
pKd [2, 25]: below the threshold
pKd [3, 25]: below the threshold
pKd [4, 25]: below the threshold
pKd [5, 25]: 4.06
pKd [6, 25]: 4.35
pKd [7, 25]: below the threshold
pKd [8, 25]: below the threshold
pKd [9, 25]: 4.7
pKd [10, 25]: 4.35
pKd [11, 25]: 3.58
pKd [12, 25]: 3.38
pKd [13, 25]: below the threshold
pKd [14, 25]: 3.36
pKd [15, 25]: below the threshold
pKd [16, 25]: below the threshold
pKd [17, 25]: below the threshold
pKd [18, 25]: 4.03
pKd [19, 25]: below the threshold
pKd [20, 25]: below the threshold
pKd [21, 25]: 4.7
pKd [22, 25]: below the threshold
pKd [23, 25]: 4.23
Binder: PSRDRKETSI [RALBP1, Q15311]

pKd [1, 24]: below the threshold
pKd [2, 24]: below the threshold
pKd [3, 24]: 3.49
pKd [4, 24]: 3.75
pKd [5, 24]: below the threshold
pKd [6, 24]: 3.66
pKd [7, 24]: below the threshold
pKd [8, 24]: below the threshold
pKd [9, 24]: 4.9
pKd [10, 24]: 4.72
pKd [11, 24]: below the threshold
pKd [12, 24]: below the threshold
pKd [13, 24]: below the threshold
pKd [14, 24]: below the threshold
pKd [15, 24]: below the threshold
pKd [16, 24]: below the threshold
pKd [17, 24]: below the threshold
pKd [18, 24]: 3.48
pKd [19, 24]: 4.02
pKd [20, 24]: below the threshold
pKd [21, 24]: 4.42
pKd [22, 24]: below the threshold
pKd [23, 24]: 3.8
Binder: HSATSVHTSV [MTMR1, Q13613]

Reference: publication PMC9482650, “Quantitative fragmentomics allow affinity mapping of interactomes” (Nature Communications, 2022)
